The results in this text go back to US20140271602, “NUCLEOTIDE-SPECIFIC RECOGNITION SEQUENCES FOR DESIGNER TAL EFFECTORS” (THE BROAD INSTITUTE INC., published 2014).

Positions count from the first letter of the chain named.

Data set [1] has as its system SOX2 TALE-TF (Xanthomonas (engineered)). The data set is described as follows: cell_activity. As to conditions: endogenous SOX2.
Data set [2] concerns AAVS1 right TALEN (Xanthomonas (engineered)). Nature of the data set: cell_activity. As to conditions: Surveyor assay, with left TALEN, 293FT.
Data set [3] deals with AAVS1 left TALEN (Xanthomonas (engineered)). Nature of the data set: cell_activity. Conditions: Surveyor assay, with right TALEN, 293FT.
The subject of data set [4] is NH-TALE (RVD screening) (Xanthomonas (engineered)). The data set is described as follows: cell_activity. Conditions: luciferase reporter.
Data set [5] deals with NN-TALE (RVD screening) (Xanthomonas (engineered)). The data set is described as follows: cell_activity. As to conditions: luciferase reporter. (In a reporter assay the amount or activity of a reporter protein is the signal.)
Data set [6] concerns the target T1, TALE2-NN (CACNA1C site 2 activator) (Xanthomonas (engineered), UniProt P14727 SEQ:1-983).
T1 chain: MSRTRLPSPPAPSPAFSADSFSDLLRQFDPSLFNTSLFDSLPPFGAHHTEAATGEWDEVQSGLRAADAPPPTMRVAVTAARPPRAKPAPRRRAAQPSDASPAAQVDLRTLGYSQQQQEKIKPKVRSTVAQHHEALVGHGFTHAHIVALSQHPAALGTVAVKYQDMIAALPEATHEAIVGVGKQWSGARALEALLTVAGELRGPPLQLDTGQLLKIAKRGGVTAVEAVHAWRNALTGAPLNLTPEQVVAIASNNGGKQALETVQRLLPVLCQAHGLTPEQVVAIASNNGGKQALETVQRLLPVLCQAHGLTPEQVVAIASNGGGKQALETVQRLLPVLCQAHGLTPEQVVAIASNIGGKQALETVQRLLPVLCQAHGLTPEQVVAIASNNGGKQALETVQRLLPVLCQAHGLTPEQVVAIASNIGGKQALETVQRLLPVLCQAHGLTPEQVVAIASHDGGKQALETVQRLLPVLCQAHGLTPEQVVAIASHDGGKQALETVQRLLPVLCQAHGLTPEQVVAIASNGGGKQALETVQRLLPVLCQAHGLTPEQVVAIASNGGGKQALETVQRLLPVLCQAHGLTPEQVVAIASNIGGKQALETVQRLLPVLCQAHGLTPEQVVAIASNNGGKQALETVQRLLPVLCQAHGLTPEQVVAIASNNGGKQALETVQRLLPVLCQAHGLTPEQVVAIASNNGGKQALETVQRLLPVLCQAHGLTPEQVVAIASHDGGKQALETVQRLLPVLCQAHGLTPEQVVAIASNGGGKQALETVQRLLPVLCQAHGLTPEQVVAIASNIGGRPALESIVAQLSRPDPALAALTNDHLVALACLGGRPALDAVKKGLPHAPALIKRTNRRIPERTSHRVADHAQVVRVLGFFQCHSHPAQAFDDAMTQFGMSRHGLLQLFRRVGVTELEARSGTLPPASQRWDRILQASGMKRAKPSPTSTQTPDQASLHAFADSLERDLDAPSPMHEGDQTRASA
The data set is described as follows: cell_activity; HEK 293FT, endogenous CACNA1C mRNA. Conditions: tags: VP64, 2A-GFP. Here is the method: Changes in mRNA are measured using qRT-PCR as described previously. VP64, VP64 transcription activation domain. All results are collected from three independent experiments in HEK 293FT cells. Error bars indicate s.e.m.; n=3. FIG. 19(b) discloses SEQ ID NOS 63 and 62, respectively, in order of appearance.
Using qRT-PCR, the performance of NN, NK, NH, and HN for targeting endogenous genomic sequences was further compared. The ability of NN-, NK-, NH-, and HN-TALEs to activate CACNA1C transcription by targeting the two endogenous target sites was tested (FIG. 19b). […] Both TALE 1-NH and TALE2-NH were able to achieve similar levels of transcriptional activation as TALE1-NN and TALE2-NN (˜5 and ˜3 folds of activation for targets 1 and 2, respectively) and twice more than TALE-NK and TALE2-NK (FIG. 19b). […] On the other hand, based on all the results from specificity and endogenous activity tests, the RVD NH seems to be a more suitable substitute for NN than NK when higher targeting specificity is desired, as it also provides higher levels of biological activity. Further testing using additional endogenous genomic targets helps validate the broad utility of NH as a highly specific G-targeting RVD.
For the endogenous gene transcriptional level assay to test the biological activities of TALE activators and TALE repressors, HEK 293FT cells were seeded into 24-well plates. […]

For data set [7], the target named is T2, TALE2-NH (CACNA1C site 2 activator) (Xanthomonas (engineered), UniProt P14727 SEQ:1-983).
T2 chain: T1 chain with N253H, N287H, N389H, N627H, N661H, N695H
Nature of the data set: cell_activity; HEK 293FT, endogenous mRNA; reporter 2.7x that of NK. Conditions: tags: VP64, 2A-GFP.

For SOX2 TALE-TF site, in data set [1], the activity (fold activation) was less than 5. As to “GTCCTAACCACTGTCTTT (double strand) [AAVS1 right TALEN site]”, in data set [2], the activity (% cleavage (pair)) was less than 3.6. “TGTCCCCTCCACCCCACA (double strand) [AAVS1 left TALEN site]” displayed an activity (% cleavage (pair)) in data set [3] of less than 3.6. “TTCTTGGTTATAAC (double strand) [RVD screen G-reporter]”: the binding signal (G- to A-reporter activation ratio) in data set [4] was 16.4; in data set [5] it was 3.5.

B1: CACNA1C site 2 (dsDNA)
DNA 1: TGGTAGACCTTAGGGCTA
DNA 2: TAGCCCTAAGGTCTACCA
On to B1, for which the activity in data set [6] and in data set [7] was roughly 3 fold activation each time.
